Data from the nanobody polyreactivity screen of Harvey et al. (2022).

Test: yeast display, Sf9 membrane polyspecificity reagent, FACS + sequencing; frameworks hold sequencing errors
Outline: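 Galactose induction of a Saccharomyces cerevisiae BJ5465 synthetic nanobody display library ran 36–48 hours. The cells were then stained for 1 hour at 4 °C with 10% biotinylated, detergent-solubilized Sf9 membrane reagent, pulled down on streptavidin microbeads and FACS-sorted into low and high (top ~1%) gates on expression and reagent-binding fluorescence. Labels for polyreactivity follow the gate of origin.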

Sequence	polyreactivity (PSR sort gate)
QVQLVESGGGLVQAGGSLRLSCAASGSIFKRNVMGWYRQAPGKERELVAAITWSGASTYYADSVKGRFTISRDNAKITVYLQMNSLKPEDTAVYYCAARGPSRRRDGSDYWGQGTQVTVSS	high polyreactivity
QVQLVESGGGLVQAGGSLRLSCAASGSIFKSNAMGWYRQAPGKERELVAGISWGGGSTYYADSVKGRFTISRDNAKNTVYLQMNSLKPEDTAVYYCAAYVYYRPSALAVTGDYYWGQGTQVTVSS	low polyreactivity
QVQLVESGGGLVQAGGSLRLSCAASGSIFKSYAMGLYRQAPGKEREFVASITKSGGTTYYADSVKGRFTISRDNAKNTVYLQMNSLKPEDTAVYYCAADWYRSSWTYNYWGQGTQVTVSS	low polyreactivity
QVQLVESGGGLVQAGGSLRLSCAASGSIFKSYAMGWYRQAPGKERELVAAISWSGTSTYYADSVKGRFTISRDHAKNTVYLQMNSLKPEDTAVYYCAASGDYGEYGYWGQGTQVTVSS	low polyreactivity
QVQLVESGGGLVQAGGSLRLSCAASGSIFKSYAMGWYRQAPGKERELVAAITYRGGSTYYADSVKGRFTISRDNAKNTVYLQMNSLKPEDTAVYYCAKDQHRYYQVWGDYWGQGTQVTVSS	high polyreactivity
QVQLVESGGGLVQAGGSLRLSCAASGSIFKSYAMGWYRQAPGKERELVAVISDSGSTYYADSVKGRFTISRDNAKNTVYLQMNSLKPEDTAVYYCRCRGRRNEYWGQGTQVTVSS	high polyreactivity
QVQLVESGGGLVQAGGSLRLSCAASGSIFKTNAMGWYRQAPGKERELVAGISNGGSTNYADSVKGRFTISRDNAKNTVYLQMNSLKPEDTAVYYCAKKGYASRYFIYDYWGQGTQVTVSS	low polyreactivity
QVQLVESGGGLVQAGGSLRLSCAASGSIFKTYAMGWYRQAPGKERELVAAITSSGGSTYYADSVKGRFTISRDNAKNTVYLQMNSLKPEDTAVYYCNARYWGYWGDHYDYWGQGTQVTVSS	high polyreactivity
QVQLVESGGGLVQAGGSLRLSCAASGSIFKVYAMGWYRQAPGKERELVAAISRGGSTYADSVKGRFTISRDNAKNTVYLQMISLKPEDTAVYYCNATVGRIYVTRYDYWGQGTQVTVSS	high polyreactivity
QVQLVESGGGLVQAGGSLRLSCAASGSIFKYNAMGWYRQAPGKEREFVAAISRSGGSTYYADSVKGRFTISRDNAKNTVYLQMNSLKPEDTAVYYCATTSRYSWSDYWGQGTQVTVSS	high polyreactivity
QVQLVESGGGLVQAGGSLRLSCAASGSIFKYYALGWYRQAPGKERELVAAITSGVSTYADSVKGRFTISRDNAKNTVYLQMNSLKPEDTAVYYCAVRVTGPRGDYWGQGTQVTVSS	low polyreactivity
QVQLVESGGGLVQAGGSLRLSCAASGSIFKYYAMGWYRKAPGKERELVAAISYRVGRTYYADSVKGRFTISRDNAKNTVYLQMNSLKPEDTAVYYCNTAYLSGQEYDYWGQGTQVTVSS	high polyreactivity
QVQLVESGGGLVQAGGSLRLSCAASGSIFKYYAMGWYRQAPGKEREFVAAITRSGGSTYYADSVKGRFTISRDNAKNTVYLQMNSLKPEDTAVYYCAARSYARPGGSRFDYWGQGTQVTVSS	high polyreactivity
QVQLVESGGGLVQAGGSLRLSCAASGSIFKYYAMGWYRQAPGKERELVAAISSGGRTNYADSVKGRFTISRDNAKNTVYLQMNSLKPEDTAVYYCAAGWYRKHRQPSGVGGDYWGQGTQVTVSS	high polyreactivity
QVQLVESGGGLVQAGGSLRLSCAASGSIFKYYAMGWYRQAPGKERELVAAISSSGGSTYYADSVKGRFTISRDYAKYTVYCQMNSLKPQDTAVYYCNTPYIWKNYDYWGQGSQVTVSS	high polyreactivity
QVQLVESGGGLVQAGGSLRLSCAASGSIFKYYSMGWYRQAPGKERELVADISRSGGRTYYADSVKGRFTISRDNAKNTVYLQMNSLKPEDTAVYYCAALDTYQYFRILYGTYEYWGQGTQVTVSS	high polyreactivity
QVQLVESGGGLVQAGGSLRLSCAASGSIFKYYTMGWYRQAPGKERELVSGISYRGGSTYYADSVKGRFTISRDNAKNTVYLQMNSLKPEDTAVYYCATGSGFSPRRNTFRYGYWGQGTQVTVSS	high polyreactivity
QVQLVESGGGLVQAGGSLRLSCAASGSIFLAYAMGWDRQAPGKEREFVAAITWSGDSTYYADSVKGRFTISRDNAKNTVYLQMNSLKPEDTAVYYCAADYFGGPSYEFDYWGQGTQVTVSS	low polyreactivity
QVQLVESGGGLVQAGGSLRLSCAASGSIFLAYAMGWYRQAPGKEREFVAAISFSDGSTYYADSVKGRFTISRDNAKNTVYLQMNSLKPEDTAVYYCNKGASPVDYDYWGQGTQVTVSS	low polyreactivity
QVQLVESGGGLVQAGGSLRLSCAASGSIFLGNAMGWYRQAPGKERELVAGITNGDNTNYADSVKGRFTISRDNAKNTDYLQMNSLKPEDTAVYYCATGPYLIYDYWGQGTQVTVSS	low polyreactivity
QVQLVESGGGLVQAGGSLRLSCAASGSIFLGYTMGWYRPAPGKERELVAAISTRGGSTYYADSVKGRFTISRDNAKNTVYLQMNSLKPEDTAVYYCKARSRGRASGYDYWGQGTQVTVSS	high polyreactivity
QVQLVESGGGLVQAGGSLRLSCAASGSIFLHNAMGWYRQAPGKDRELVAAISGTGGRTYYADSVKGRFTISRDNAKNTVYLQMNSLKPEDTAVYYCAKAARTRGGYGYWGQGTQVTVSS	high polyreactivity

Sequence	polyreactivity (PSR sort gate)
QVQLVESGGGLVQAGGSLRLSCAASGSIFLIYAMAWYRQAPGKERELVAAISSGGSTYYADSVKGRFTISRDNAKNTVYLQMNSLKPEDTAVYYCATYSTSVAYHLYYWGQGTQVTVSS	low polyreactivity
QVQLVESGGGLVQAGGSLRLSCAASGSIFLIYAMGWYRQAPGKERELVAAISSGGSTYYADSVKGGFTISRDNAKNTVYLQMNSLKPEDTAVYYCATYSTSVGYHLYYWGQGTQVTVSS	low polyreactivity
QVQLVESGGGLVQAGGSLRLSCAASGSIFLKNVMGWYRQAPGKERELVAAITARGGATYYADSVKGRFTISRDNAKKTVYLQLNSQKPEDTAVYYCAARARVVPSLGNPRMDYWGQGTQVTVSS	high polyreactivity
QVQLVESGGGLVQAGGSLRLSCAASGSIFLKYDMGWYRQAPGKERELVAAISRGGDTNYADSVKGLFTISRDNAKNCVYLQMNSLKPEDTAVYDCAARPGLYFTRRGRYYLGQGTQVTVSS	high polyreactivity
QVQLVESGGGLVQAGGSLRLSCAASGSIFLLYAMGWYRQAPGKERELVAAISTRDGSTYYADSVKGRFTLSRDNAKNTVYLQMNSLKPEDTAVYYCATLYSYNYWGQGTQVTVSS	high polyreactivity
QVQLVESGGGLVQAGGSLRLSCAASGSIFLLYAMGWYRQAPGKERELVARISWSGDNTRYADSVKGRFTISRDNAKNTVFLQMNSLKPEDTAVYYCNAYYFYGQWKGYDYWGQGTQVTVSS	low polyreactivity
QVQLVESGGGLVQAGGSLRLSCAASGSIFLLYAMGWYRQAPGKERELVARISWSGDNTRYADSVKGRFTISRDNEKNTVYLQMNSLKPEDTAFYYCNAVTFSWDYGYWGQGSQVTVSS	low polyreactivity
QVQLVESGGGLVQAGGSLRLSCAASGSIFLNYAMGWYRQAPGKERELVAAISYRVGRTYYADSVKGRFTISRDNAKNTVYLQMNSLKPEDTAVYYCAADSRSPGHDYWGQGTQVTVSS	high polyreactivity
QVQLVESGGGLVQAGGSLRLSCAASGSIFLRNAMGWYRQAPGKERELVASITWNGASTSYADSVKGRFTISRDNAKNTVYLQMNSLKPEDTAVYYCAAVTVQDSNLKYGYWGQGTQLTVSS	low polyreactivity
QVQLVESGGGLVQAGGSLRLSCAASGSIFLRYAMGSYRQAPGKDRELVAAITRSGGSTYYADSVKGRFTISRDNANNTVDLQMNSLKPEDTAVYYCAAYTLVTVGYDYWGQGTQVTVSS	high polyreactivity
QVQLVESGGGLVQAGGSLRLSCAASGSIFLRYAMGWYRQAPGKERELVAAISLSGGNTYYADSVKGRFTISRDNSKNTVYLQMNSLKPEDTAVYYCAATRTKRKFDYWGQGTQVTVSS	high polyreactivity
QVQLVESGGGLVQAGGSLRLSCAASGSIFLRYAMGWYRQAPGKERELVAAITTGGGSTYYADSVKGRFTISRDNAKNTVYLQMNRLKPEDPAVYYCAKRAQYHWRGRDDYSYYYWGQGTQVTVSS	low polyreactivity
QVQLVESGGGLVQAGGSLRLSCAASGSIFLRYAMGWYRQAPGKERELVAGITSGGSTNYADSVKGRFTISRDNAKNCVYLQMNSLKPEDTAVYYCNKDLPDWGHEWNGDSWGQGTQVTVSS	low polyreactivity
QVQLVESGGGLVQAGGSLRLSCAASGSIFLRYDMGWYRQAPGKERELVAAISRGGSTYYADSVKGRFTISRDNAKNTVYLQLNSLKPEDTAVYSCAARRFGREHGYWGQGTQVTVSS	high polyreactivity
QVQLVESGGGLVQAGGSLRLSCAASGSIFLSNPMGWYRQAPGKERELVAAITSGGRTTYADSVKGRFTISRDNAKNTVYLQMNSLKPEDTAVYYCAARQRWYWRGYDYWGQGTQVTVSS	high polyreactivity
QVQLVESGGGLVQAGGSLRLSCAASGSIFLSYDMGWYRQAPGKERELVAAITQSGGSTYYADSVKGRFTISRDNAKNTVYLQMNSLKPEDTAVYYCAADYGYFPQETYPTYGYYYWGQGTQVTVSS	low polyreactivity
QVQLVESGGGLVQAGGSLRLSCAASGSIFLWNAMGWYRQAPGKERELVAAISSSGGSTYYADSVKGRFTISRDNAKNTVYLQLNSLKPEDTAVYYCAAVSRSYYNSYNYWGQGTQVTVSS	high polyreactivity
QVQLVESGGGLVQAGGSLRLSCAASGSIFLYNAMGWYRQAPGKERELVAAISASGGSTYYADSVKGRFTISRDNAKNTVYLQMNSLKPEDTEVYFCAAQYSDYDGFTWPLPPRYDYWGQGTQVTVSS	high polyreactivity
QVQLVESGGGLVQAGGSLRLSCAASGSIFLYNAMGWYRQAPGKERELVAGITFIGGSTYYADSVKGRFTISRDNAKNTVYLQMNSLKPEDTAVYYCNADVAPGIFYGYDSWGQGTQVTVSS	low polyreactivity
QVQLVESGGGLVQAGGSLRLSCAASGSIFLYNAMGWYRQAPGKERELVASISSGGITDYADSVKGRFTISRDNAKNTVYLQMNSLKPEDTAVYYCAATYSVYLDYAGGGPLYNHWGQGTQVTVSS	low polyreactivity
QVQLVESGGGLVQAGGSLRLSCAASGSIFLYNAMGWYRQAPGKERELVASITYGSGSTYYADSVKGRFTISRDNAKNTVYLQMNSLKPEDTAVYYCAATRYYRHGRYDSWGQGTQVTVSS	high polyreactivity
